Experimental data reported in patent US20230002728A1, “STEM CELL FATE ENGINEERING METHODS” (Wisconsin Alumni Research Foundation, priority 2021, published 2023).

What was measured:
Type in all cases: cell-based, human
H9 hESCs [1] = experiment: ALK inhibitor test on BMP4 patterns (BRA immunostaining, day 2); conditions: 1 μM A83-01, 10 μM SB-431542 or 2 μM LDN-212854 added for the initial 24 h
Method: For localized mesendoderm differentiation, 2-2.5 ng/μl BMP4 solution was placed with various patterns on different substrates. For glass surfaces, 1.5 ng/μl BMP4 solution was used. 5 ng/μl noggin solution was placed as a droplet to show an inhibitory effect of noggin on BMP4-induced mesendoderm differentiation. After washing, substrate was coated with Matrigel® for 2 hours as described above. Glass was coated with Matrigel® overnight. 0.025 mg/ml Synthemax (Corning, 3535) (final concentration, diluted in water) was added to a washed TC-treated plate and the plate was incubated for 2 hours at room temperature prior to cell seeding. 5 μg/ml truncated recombinant human vitronectin (Gibco, A14700) diluted in PBS was added to a washed TC-treated plate and the plate was incubated for 1 hour at room temperature prior to cell seeding. After ECM coating, the ECM solution was aspirated and hPSCs were singularized using Accutase (10 min incubation at 37° C.), resuspended in mTeSR1 supplemented with 5 μM Y-27632, and seeded at 5×10^5 to about 1×10^6 cells/cm^2 on coated substrates (day 0). […]
(§1) For immunostaining of other protein markers, cells were fixed in 4% paraformaldehyde (Electron Microscopy Sciences, 15710-S) in PBS for 15 min at room temperature, washed with PBS three times, and incubated in diluted primary antibodies in 5% nonfat dry milk (Santa Cruz Biotechnology, sc-2324)/0.4% Triton X-100 (Fisher Scientific, BP151-500) PBS overnight at 4° C. […] After secondary antibody staining, the cells were washed with PBS three times, incubated in 2 μg/ml Hoechst 33342 diluted in PBS for 5 min at room temperature, washed with PBS two times, and analyzed under the fluorescence microscope.
Next, BMP4 solution was placed on TC-treated plates in various patterns (droplet, letters, circle, heart, and star), and hPSCs seeded onto the substrate in mTeSR1 maintenance medium. […] Since the presence of inhibitory morphogens is also important in developmental patterning, a BMP inhibitor, noggin, was evaluated for antagonism to localized BMP4-induced mesendoderm differentiation. […]

H9 hESCs [2] = experiment: Localized definitive endoderm differentiation of hPSCs on adsorbed activin A patterns (SOX17/FOXA2 immunostaining)
Method: For immunostaining of other protein markers, cells were fixed in 4% paraformaldehyde (Electron Microscopy Sciences, 15710-S) in PBS for 15 min at room temperature, washed with PBS three times, and incubated in diluted primary antibodies in 5% nonfat dry milk (Santa Cruz Biotechnology, sc-2324)/0.4% Triton X-100 (Fisher Scientific, BP151-500) PBS overnight at 4° C. Then, the cells were washed with PBS three times and incubated in diluted secondary antibody in 5% nonfat dry milk/0.4% Triton X-100 PBS for 30 min at room temperature. After secondary antibody staining, the cells were washed with PBS three times, incubated in 2 μg/ml Hoechst 33342 diluted in PBS for 5 min at room temperature, washed with PBS two times, and analyzed under the fluorescence microscope.
For localized definitive endoderm differentiation, 25 ng/μl activin A solution was placed with various patterns on a TC-treated plate. Matrigel® coating and hPSC seeding was performed as the same way described above. Medium was changed daily with RPMI1640 medium supplemented with 2% FBS. For the ALK inhibitor test, 1 μM A83-01 (Tocris, 2939), 10 μM SB-431542 (Tocris, 1614), or 2 μM LDN-212854 (Tocris, 6151) was added to mTeSR1 at day 0. […]

H9 hESCs [3] = experiment: Noggin droplet pattern, inhibitory effect on BMP4-induced mesendoderm differentiation (BRA immunostaining); conditions: 5 ng/μl noggin droplet on TC-treated PS; mTeSR1 with 10 ng/ml BMP4, 2 days
Method: For localized mesendoderm differentiation, 2-2.5 ng/μl BMP4 solution was placed with various patterns on different substrates. For glass surfaces, 1.5 ng/μl BMP4 solution was used. 5 ng/μl noggin solution was placed as a droplet to show an inhibitory effect of noggin on BMP4-induced mesendoderm differentiation. After washing, substrate was coated with Matrigel® for 2 hours as described above. Glass was coated with Matrigel® overnight. 0.025 mg/ml Synthemax (Corning, 3535) (final concentration, diluted in water) was added to a washed TC-treated plate and the plate was incubated for 2 hours at room temperature prior to cell seeding. […]
as §1, with “microscope. […]” for “microscope.”

[4] = system: H9 hESC-derived cardiac progenitor cells (CPCs); experiment: Localized EpiC differentiation of hPSC-derived cardiac progenitors on morphogen droplets (WT1 immunostaining); conditions: droplets on TC-coated PS plate, 7d after cardiac progenitor seeding
Method: For localized EpiC differentiation, BMP4 (2 ng/μl)+Wnt3a (40 ng/μl) solution was placed in PDMS stencil masks either on a TC-treated plate or an ibidi 35 mm polymer dish. Matrigel® coating was performed as described above. Cryopreserved CPCs were thawed and seeded at 500,000-550,000 cells/cm^2 in LaSR medium (advanced DMEM/F12 (Gibco, 12634-010) supplemented with 60 μg/ml ascorbic acid (Sigma, A8960) and 2.5 mM Glutamax (Gibco, 35050-061)) supplemented with 5 μM Y-27632). Medium was changed daily with fresh LaSR medium until analysis. Time lapse imaging of CPCs derived from H9-hTNNT2-GFP hESC during localized EpiC differentiation was performed using a fluorescence microscope equipped with a heating stage top incubator. 18 days after CPC seeding, cells cultured on an ibidi polymer dish were immunostained and imaged using a confocal microscope (Nikon, A1R-SI+) for the analysis of sarcomere structure.
Spatial organization of cell fate commitment is important throughout development. […] These cardiac progenitors can further differentiate into CMs without any specific external signaling factors and can also differentiate into EpiCs upon activation of canonical Wnt signaling (Bao et al. (2016) Nature biomed. Eng. 1, 1-12).

## NC(=O)c1ccc(-c2nc(-c3ccc4c(c3)OCO4)c(-c3ccccn3)[nH]2)cc1 [SB431542]
H9 hESCs [1]
  BRA expression in cells on the BMP4-patterned area: suppressed BRA expression

## Cc1cccc(-c2nn(C(=S)Nc3ccccc3)cc2-c2ccnc3ccccc23)n1 [A83-01]
H9 hESCs [1]
  BRA expression in cells on the BMP4-patterned area: suppressed BRA expression

## c1cc(-c2cnn3cc(-c4ccc(N5CCNCC5)cc4)cnc23)c2cccnc2c1 [LDN-212854]
H9 hESCs [1]
  BRA expression in cells on the BMP4-patterned area: suppressed BRA expression

B1: activin A: human recombinant activin A (R&D Systems, 338-AC-010), morphogen (protein, UniProt P08476 311-426, looked up)
Inhibin beta A chain: GLECDGKVNICCKKQFFVSFKDIGWNDWIIAPSGYHANYCEGECPSHIAGTSGSSLSFHSTVINHYRMRGHSPFANLKSCCVPTKLRPMSMLYYDDGQNIIKKDIQNMIVEECGCS
H9 hESCs [2]; 25 ng/μl activin A adsorbed on TC-treated plate, day 3
  endoderm differentiation (patterned SOX17 expression): induced localized endoderm differentiation
H9 hESCs [2]; day 5 of differentiation
  cells expressing SOX17 and FOXA2 on the patterned area: almost all of the cells

B2: noggin: human recombinant noggin (R&D Systems, 6057-NG-025), a BMP inhibitor (protein, UniProt Q13253 28-232, looked up)
Noggin: QHYLHIRPAPSDNLPLVDLIEHPDPIFDPKEKDLNETLLRSLLGGHYDPGFMATSPPEDRPGGGGGAAGGAEDLAELDQLLRQRPSGAMPSEIKGLEFSEGLAQGKKQRLSKKLRRKLQMWLWSQTFCPVLYAWNDLGSRFWPRYVKVGSCFSKRSCSVPEGMVCKPSKSVHLTVLRWRCQRRGGQRCGWIPIQYPIISECKCSC
H9 hESCs [3]
  effect on BMP4-induced mesendoderm differentiation (BRA expression): inhibited BMP4-induced mesendoderm differentiation

B3: Wnt3a: human recombinant Wnt3a (R&D Systems, 5036-WN-010), morphogen (protein, UniProt P56704 19-352, looked up)
Protein Wnt-3a: SYPIWWSLAVGPQYSSLGSQPILCASIPGLVPKQLRFCRNYVEIMPSVAEGIKIGIQECQHQFRGRRWNCTTVHDSLAIFGPVLDKATRESAFVHAIASAGVAFAVTRSCAEGTAAICGCSSRHQGSPGKGWKWGGCSEDIEFGGMVSREFADARENRPDARSAMNRHNNEAGRQAIASHMHLKCKCHGLSGSCEVKTCWWSQPDFRAIGDFLKDKYDSASEMVVEKHRESRGWVETLRPRYTYFKVPTERDLVYYEASPNFCEPNPETGSFGTRDRTCNVSSHGIDGCDLLCCGRGHNARAERRREKCRCVFHWCCYVSCQECTRVYDVHTCK
[4]
  EpiC differentiation (WT1 expression): limited if any EpiC differentiation
